For orientation: koff means the rate constant with which the complex falls apart. The kon is a measure of how fast the partners come together. In general, EC50 (read off the curve) refers to the concentration at which the effect is half-maximal. For orientation: EC50 means the concentration giving half of the maximal effect.

The target of assay [1] is T1, murine ApoE (mouse, UniProt P08226 19-311).
T1 sequence (looked up): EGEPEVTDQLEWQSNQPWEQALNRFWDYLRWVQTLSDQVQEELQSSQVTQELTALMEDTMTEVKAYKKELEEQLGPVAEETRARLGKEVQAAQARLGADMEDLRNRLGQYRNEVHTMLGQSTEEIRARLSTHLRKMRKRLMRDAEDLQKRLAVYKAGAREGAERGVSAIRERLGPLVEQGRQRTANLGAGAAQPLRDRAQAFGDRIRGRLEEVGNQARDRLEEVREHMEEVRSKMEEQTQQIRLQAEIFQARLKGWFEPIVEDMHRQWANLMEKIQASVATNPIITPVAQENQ
Nature of the assay: Western blot of mouse brain lysates. An excerpt:
Brain lysates from apoE KO mice or mice expressing human apoE3, human apoE4 or murine apoE were immunoblotted with HJ151, HJ152, HJ153, and HJ154. A commercial apoE antibody GA-50 was used as a positive control.
A general note: A western blot detects proteins with antibodies after separation by electrophoresis.

The target in assay [2] is T2, recombinant alipidated human ApoE4 (human, UniProt P02649 19-317).
T2 construct: mature; full length recombinant protein made in E. coli or bought; biotinylated for SPR; position 112 is counted on the mature protein, not on the precursor entry; also called recApoE; non-lipidated ApoE4
Nature of the assay: SPR (Biacore T200), biotinylated ApoE4 captured on anti-biotin mAb chip, antibody injected, 1:1 fit. As to the method:
The affinity of several anti-ApoE antibodies for ApoE4 was determined by surface plasmon resonance using a BIAcore T200. Anti-biotin monoclonal mouse antibody was immobilized on a Biacore Series S CM5 sensor chip. Biotinylated recombinant alipidated ApoE4 was then captured on to the chip. Serial dilutions of each antibody were injected at a flow rate of 30 μl/min. Each sample was analyzed, for example, with 3-minute association and 10-minute dissociation. After each injection the chip was regenerated using 3 M MgCl₂ or another appropriate buffer. Binding response was corrected by subtracting the response units (RUs) from a flow cell capturing an irrelevant IgG at similar density. A 1:1 Languir model of simultaneous fitting of Kₒₙ and Koff was used for kinetics analysis. Recombinant alipidated ApoE4 was either expressed in soluble form in E. coli and then purified, or purchased from a commercial supplier.
On the technique in general: In SPR one partner is held on a chip, and binding of the other changes the refractive index at the surface.

For assay [3], the target named is T2, recombinant alipidated human ApoE4. Nature of the assay: ELISA: untreated recombinant ApoE4 on the plate, antibody titrated, OD650. The method, then: (§1) 1: untreated ApoE4. 2: ApoE4 that has been incubated at 40° C. for 24 hr. Supernatant(S) and pellet (P) from ultracentrifugation were resolved on SDS-PAGE and stained by Coomassie blue. (D) Binding of HJ156 to different preparations of ApoE4 loaded at the same concentration on the ELISA plate. Sup of untreated: Supernatant fraction of untreated ApoE4 from ultracentrifugation. Sup/Pel of 24h 40C: Supernatant/pellet fraction of ApoE4 incubated at 40° C. for 24 hour. (E) Binding of HJ156 to untreated and 40° C. incubated ApoE4 with and without denaturation by 1% SDS or 4M guanidine HCl.
(§2) In order to test whether HJ151 and HJ156 bind to some form of ApoE in the brain, unfixed frozen brain sections from APPPS1/APOE4 or APPPS1/EKO mice using HJ151 and HJ156 (FIG. 38A). The presence of Aβ plaques was confirmed with Aβ immunostaining using anti-Aβ antibody HJ3.4 on the sections from the same brain. […] Next, the ability of HJ156 to bind to an aggregated form of ApoE induced by incubation at 40° C. was queried. The binding of untreated ApoE to HJ151, HJ153 or HJ156 was compared to the binding of ApoE incubated at 40° C. to HJ151, HJ153 or HJ156. HJ153 bound to untreated ApoE or ApoE incubated at 40° C. similarly while HJ151 and HJ156 preferentially bound to ApoE incubated at 40° C. (FIG. 38B). […] Solubilization of the ApoE aggregates reduced their binding to HJ156. […]

For assay [4] the target is unchanged. Nature of the assay: SPR, biotinylated recombinant apoE4 captured on a streptavidin chip; column Kd (1/s). As to the method:
(§3) ELISA plates were coated with 0.5 μg/ml of recombinant apoE2 (square), apoE3 (open circle), or apoE4 (closed circle). Then different concentrations of (A) HJ151, (B) HJ153, (C) HJ154, or (D) HJ156 were loaded on the plates. Horse-radish peroxidase labeled goat anti-mouse secondary antibodies were used to detect binding. […] HJ151 is specific for ApoE4 and HJ156 binds only ApoE3 and ApoE4. FIG. 5E-H are graphs depicting surface plasmon resonance profiles for various antibodies. Anti-ApoE antibodies were serially diluted 3-fold (starting at 100 nM for HJ153 (E), and 1000 nM for HJ151 (F), and […] (G)) for detection of binding to biotinylated-recombinant apoE4 captured on a streptavidin chip. Samples were injected at a flow rate of 30 μl/minute. (H) Apparent KD values of HJ151, HJ153 and HJ156 were calculated based on the SPR experiment.
(§4) ELISA plates were coated with 0.5 μg/ml of recombinant apoE2, apoE3, or apoE4. Then different concentrations of HJ151 (FIG. 5A), HJ153 (FIG. 5B), HJ154 (FIG. 5C), or HJ156 (FIG. 5D) were loaded on the plates. Horse-radish peroxidase labeled goat anti-mouse secondary antibodies were used to detect binding. […] HJ151 is specific for ApoE4 and HJ156 binds only ApoE3 and ApoE4. Surface plasmon resonance profiles for various antibodies was also performed.

Assay [5] has the same target. Nature of the assay: SPR, biotinylated recombinant apoE4 captured on a streptavidin chip; column Apparent KD (M). The method, then:
as §3, §4

Assay [6] has as its target T3, heat-induced aggregates of ApoE4 (human, UniProt P02649 19-317).
T3 construct: mature; aggregated state of the recombinant protein; also called ApoE4 incubated at 40 C for 24 hr; heat-treated ApoE4
Nature of the assay: ELISA: ApoE4 incubated at 40 C for 24 hr on the plate, antibody titrated, OD650. The method, then:
as §1, §2
For orientation: In an ELISA, binding on a coated surface is turned into a signal by an enzyme label.

Assay [7] concerns the target T2, recombinant alipidated human ApoE4. Nature of the assay: SPR, biotinylated recombinant apoE4 captured on a streptavidin chip; column Ka (1/Ms). The method, then: as §3, §4
Assay [8] shares this target. Nature of the assay: direct ELISA on coated recombinant alipidated ApoE (0.5 ug/ml). The method, then: (§5) ELISA dose response curves were generated for several anti-ApoE antibodies. Briefly, plates were coated overnight with full length recombinant alipidated ApoE2, ApoE3, or ApoE4 (0.5 μg/ml). The following days, plates were washed, blocked and then incubated with an anti-ApoE antibody. A goat, anti-mouse IgG-HRP antibody was used for secondary detection. Recombinant alipidated ApoE was either expressed solubly in E. coli and then purified, or purchased from a commercial supplier.

For assay [9], the target named is T4, recombinant alipidated human ApoE2 (human, UniProt P02649 19-317).
T4 construct: mature; full length recombinant protein made in E. coli or bought
Described as above. As to the method: as §5

For assay [10], the target named is T5, recombinant alipidated human ApoE3 (human, UniProt P02649 19-317).
T5 construct: mature; full length recombinant protein made in E. coli or bought
Described as above. As to the method:
as §5

T2 sequence (P02649 19-317 C130R): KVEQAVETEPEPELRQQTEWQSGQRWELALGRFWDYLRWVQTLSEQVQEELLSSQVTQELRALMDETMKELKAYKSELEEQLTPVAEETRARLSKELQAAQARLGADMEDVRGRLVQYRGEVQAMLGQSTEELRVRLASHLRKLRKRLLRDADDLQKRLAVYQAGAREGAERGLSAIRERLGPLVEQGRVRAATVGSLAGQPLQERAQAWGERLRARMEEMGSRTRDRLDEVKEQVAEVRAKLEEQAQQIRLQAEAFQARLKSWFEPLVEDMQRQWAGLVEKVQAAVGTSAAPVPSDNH
T4 sequence (P02649 19-317 R176C): as the sequence (P02649 19-317 C130R) above, with R112C, R158C counted along it
T5 sequence (P02649 19-317): as the sequence (P02649 19-317 C130R) above, with R112C counted along it
T3 sequence (P02649 19-317 C130R): as the sequence (P02649 19-317 C130R) above

B1: HJ153 (antibody, V domains shown)
VH: QVQLQQPGAELVKPGASVKLSCKASGYTFTSYWMHWVKQRPGRGLEWIGEIDPSDGFTYNNQNFKDKSTLTVDRSSGTAYLQLSSLTSEDSAVYYCAGSLGRIGLAYWGHGTLVTVSA
VL: QIVLTQSPAIMSASPGEKVTISCSASSSVTYMYWYQQKPGASPKSWIYRTSNLASGVPARFSGSGSGTSYSLTISSMEAEDAATYYCQQFQSYPLTFGAGTKLELKR
notes: murine monoclonal antibody from hybridoma; also called HJ153B (biotinylated)
Turning to B1, in assay [1], the binding result is recorded as “no binding”. The Kd came out at 430 pM in assay [2] and 319 pM in assay [5]. Besides, the koff in assay [2] was determined as 0.000346 s⁻¹; in assay [4], 0.000211 s⁻¹. In addition, the kon was 804000 M⁻¹ s⁻¹ in assay [2] and 662000 M⁻¹ s⁻¹ in assay [7]. Further, the half-maximal effective concentration (EC50 (read off the curve)) is approximately 300 pM in assay [3] and approximately 200 pM in assay [6]. Besides, the EC50 is 30 pM in [8], 20 pM in [9] and 20 pM in assay [10].

These data come from US20250145697A1 (WASHINGTON UNIVERSITY, published 2025).
